Measured values as given in the nanobody polyreactivity screen of Harvey et al. (2022).

Experiment: yeast display, Sf9 membrane polyspecificity reagent, FACS + sequencing; frameworks hold sequencing errors
Method in brief: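 A synthetic nanobody library was expressed on Saccharomyces cerevisiae BJ5465 by galactose induction for 36–48 hours. The library was stained for 1 hour at 4 °C with 10% biotinylated, detergent-solubilized Sf9 membrane reagent and enriched with streptavidin microbeads before FACS. Low and high (top ~1%) gates were set on anti-HA fluorescence for expression and streptavidin fluorescence for reagent binding, and each polyreactivity label reflects the gate of origin.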

Sequence	polyreactivity (PSR sort gate)
QVQLVESGGGLVQAGGSLRLSCAASGSIFLYNDMGWYRQAPGKERELVAAISSGGNTNYADSVTGRFTISRDNAKNTVYLQMNSLKPEDTAVYYCNAAWIRVFQYTLYKYVYWGQGTQVTVSS	low polyreactivity
QVLLVESRGGLVQAGGSLRLSCAASGSIFFYYAMGWYRQAPGKETELVASISWSGGSTYYADSVKGRFTISRDNAKNTVYLQMNSLKPEDTAVYFCAKVTITFSWETLYDYWGQGTQVTVSS	low polyreactivity
QVQLVESGGGLVQAGGSLRLSCAASGRTFFKYAMGWYRQAPGKERELVAAIRSGTSTYYADSVKGRFTISRDNAKNTVYLHMNSLKPEDTAVYYCAADWHSKIGKGYDYWGQGTQVTVSS	high polyreactivity
QVQLVESGGGLVQAGGSLRLTCAASGSTFTYYAMGWYRQAPGKERDLVAAITSSDGSTYYADSVKGRFTISRDNAKNTVYLQMNSLKPEDTAVYYCAADNYVDFYDEYDYWGQGTQVTVSS	low polyreactivity
QVQLVESGGGLVQAGGSLRLSCAASGFIFYYNTMGWYRQAPGKERELVASITWSGDTTYYADSVKGRFTISRDNAKNTVYLQMNSLKPEDTAVYYCAAVHYYPYRRYDYWGQGTQVTVSS	low polyreactivity
QVQLVESGGGLVQAGGSLRLSCAASGSIFDVYAMGWSRQAAGTERELVAAIDSGGSSTYYADSVKGRFTISRDNAKNSVYLQMNSLKPEDTAVYYCAARPYYSWNYDYWGQGTQVTVSS	low polyreactivity
QVQLVESGGGLVQAGGSLRLSCAASGIIFSFYAMGWYRQAPWKERELVAAISSGGNTNYADSVNGRFTISRDNAKNTVYLQMNSLKPEDTAVYYCAAGYYIWSTYDYWGQGTQVTVSS	low polyreactivity
QVQLVESGGGLVQAGGSLRLSCAASGYTFDLYAMGWYRQAPGKERELVADISSGGSTNYADSVKGRFTISRDNAKNTVYLQMNSLKPEDTAVYYCAVDADRSLFGQYYVSEYGGGYWGQGTQVTVSS	low polyreactivity
QVQLVESGGGLVQAGGSLRLSCAASGSTFYSNAMGWYRQAPGKERELVATISQRGGRTYYADSVKGRFTISRDNAKNTVYLQMNSLKPEDTAVYYCAKAATSWYGRYGYDYWGQGTQVTVSS	low polyreactivity
QVLLVESGGGLVQAGGSLRLSCAAYGRTFYGYAMGWYRQAPGKERELVATISSGDSTNYADSVKGRFTISRDNAKNTVYLQMNSLKPEDTAVYYCAAQGGDGVLALYYYWGQGTQVTVSS	low polyreactivity
QVQLVESGGGLFQAGGSLRLSCAASGINFYKYSMGWYRQAHRKERELVAAITSGGGRTYYADSVKGRFTISRDNAKNTVYLQMNSLKPEDTAVYYCAATRPASYAAYDYWGQGTQVTVSS	high polyreactivity
QVQLVESGGGLVQAGGSLRLSCAASGSTFWSYAMGWYRQAPGKEREFVAAISSSDDSTYYADSVKGRFTISRDNAKNTVYLQMNSMKPEDTAVYYCATSWYIYPYDYWGQGTQVTVSS	low polyreactivity
QVQLVESGGGLVQAGGSLRLSCAASGRTFLYNAMGWYSQATWKERELVASITRRGGTTYYADSVKGRFTISRDNAKNTVYLQMNSLKPEDTAVYYCNAQPGISYYYYGHWYGYWGQGTQVTVSS	high polyreactivity
QVQLVESGARLVQAGGSLRLSCAASAYTLVGYAMGWYRQEPGKERELVADINFSGGRTYYADSVKGRFTISRDNAKNNVYLQMNSLKPEDTAVYYCNAAGALSWFYYGYDYWGQGTQVTLSS	low polyreactivity
QVQLVESGGGLVQAGGSLRLSCAASGSTFHNYAMGCYRQAPGKERELVAGISVRGGGTYYADSVKGRFTISRDNAKNTVYVQMNSLKPEDTAVYYCNARSWYYVWRKGYRHGDYWGQGTQVTVSS	high polyreactivity
QVQLVESGGGLVQAGGSLRLSCAASGSNLDYNAMGWSRQAPGKERELVAAISTGGRTNYADSVKGRFTISRDNAKNTVYLQMNSLKPDDTAVYYCAADTTTEITDTDYDYWGQGTQVTVSS	low polyreactivity
QVQLVESGGGLVQAGGSLRLSCAASGFIFDSYVMGWYRQAPGKERELVAAISRRNSSTYYADSVKGRFTNSRDNAKNTVYLQMNSLKPEDTAVYYCAAKYLRAYGYWGQGTQVTVSS	high polyreactivity
QVQLVESGGGLVQAGGSLRLSCAASGSTFTPNAMGWYRQAPGKERELVAASRYTGVGTYYADSVKGRFTISRDNAKNTVYLQMNSPKPEDTAVYYCNRVSRYYNYDYWGQGTQVTVSS	high polyreactivity
QVQLVESGGGLVQAGGSLRLSCAASGSNFYFYAMGWYRQAPGKERELVAGITSSGASTYADSVKGRFTISRDNEKNTVYLQMNSLKPEDTAVYYCAAYYPLRKGYGYWGQGTQVTVSS	high polyreactivity
QVQLVESGGGLVQAGGSLRLSCAASGSTFTGYAMGWYRPAPGKEREFVAAISRSGGSTYYADSVKGRFTISRDNAKNTVYLQMNSLKPEDTAVYYCNARGFTRYTVGRNYWGQGTQVTVSS	high polyreactivity
QVQLVESGGGLVQAGGSLRLSCAASGNTFAFNAMGWYRQATGKEREFVAAISYSGVSTYYADSVKGRFTISRDNAKNTVYLQMNSLKPEDTAVYYCAARYGWYKYWYDYWGQGTQVTVSS	high polyreactivity
QVQLVESGGGLVQAGGSLRLICAAAGRTFWYNAMGWYRQAPGKERELVAVISSGAITYYADSVKGRFTISRDNAKNTVYLQMNSLKPEDTAVYYCAARSYLSLIDYWGQGTQVTVSS	high polyreactivity

Sequence	polyreactivity (PSR sort gate)
QVQLVESGGGLDQAGGSLRLSCAASGIIFWYNARGWYRQAPGKERELVAAINYGGSTNYADSVKGRFTISRDNAKNTVYLQMNSLKQEDTAVDYCNADRSVIHRGYIWQPGRNDYWGQGTQVNVSS	low polyreactivity
QGQLVESGRGLVQAGGSLRLSSAASGSTFFANAMGWYRQAPGKERELVAAIDKRGGRTYYADSVKGRFTISRDNAKNTVYLQMNSLKPEDTAVYYCNAVANYRLKYDYWGQGTQVTVSS	high polyreactivity
QVQLVESGGGLVQAGGSLRLSCAASGIIFVPYAMGWYRQAPGKERELVAANNSGGNTYYADSVKGRFTISRDNAKNTVYLLIYSLKPEDTAVYYCGAYSKYPVFDYNYWGQGTQVTVSS	high polyreactivity
QVQLVESGGGLVQAGGSLRLSCAASGSTFRYNAMGWYRQAPGKERELVATITGSGGSTYYADSVKGRFTISRDNAKNTVYLQMNSLKPEDTAVYYCAAAYRGRYSWYYFPRYAYWGQGTQVTVSS	high polyreactivity
QVQLVESGGRLVQAGGSLRRSCAASGSTFASNAMRWYRPAPGKERELVAAITSRDASTYYADSVKGRFTISRDNAKNTVYLQMNSLKPEDTAVYYCATDGYSPAAFDYWGQGTQVTVSS	low polyreactivity
QVQLVESGGGLVQAGGSLRLSCAASGRIFYYNVMGWYRQAPGKERELVAAITWSGGSTYYADSVKGRFTISRDNAKNTVYLQMNSLKPEDTAVYYCAAKFSKWTLKKYYYWGQGTQVTVSS	high polyreactivity
QVQLVESGGGLVQAGGSLRLSCAASGYIFYENAMGWYRQAPGKERELVAAIRFTGGSTYYADSVKGRFTISRDNAKNTVYLQMNSLKPEDTAVYYCSKSYPDTQRYQYPRGWELDYWGQGTQVTVSS	low polyreactivity
QVQLVESGGGLVQAGGSLRLSCAASGRTFTTYTMGWYRQAPGKERELVASINYRGGRTYYADSVKGRFTISRDNAKNTVYLQMNSLKPEDTAVYYCAYYPYGYDYWGQGTQVTVSS	high polyreactivity
QVQLVESGGGLVQAGGSLRLSCAASGYIFGQNHMGWYRQAPGKERELVAAISSDGSTYYADSVKGRFTISRDNAKNTVYLQMNSLKQEDTAVYYCKYYHQRFPYRQVYYWGQGTQVTVSS	low polyreactivity
QDHLVESGGGLVQAGGSLRLSCAASGSTFYFYAMGWYREAPGKERELVAVISSGGRTYYADSVKGRFTISRDNAKNSVYLQMNSLKPVDTGVYYGAASWPSSLTFYYWGHGTQVTVSS	low polyreactivity
QVQLVESGGGLVQAGGSLRLSCASSGSIFRRYAMGWYRQATGKERELVAAISSNGGSTYYADSVKGRFTISRDNAKNTVYLQLNSLKPEDTAGYYCNAQVVHYRVSSVITYTIYDYWGQGTQVTVSS	high polyreactivity
QVQLVESGGGLVQAGGSLRLRCAASGRTFSGYAMGWYRQSPGKERELVAAITASGSSTYYADSVKGRFTSSRDNAKNTVDLQMNSLKPEDTAVYYCAADYTGDWADGPHSLREYDYWGQGTQVTVSS	low polyreactivity
QVQLVESGGGLVQAGGSLRLSCSASGFIFTTYAMAWYRQAPGKERELVAAIRNSDGSTYYADSVKGRFTISRDNAKNTVYLQMNSLKPVDTAVYYCAKRYRGEPGRTYGYWGQGTQVTVSS	high polyreactivity
QVQLVESGGGLVQAGGSLRLSCAASGSTFRGFAMGWYRQAPGKERELVAAISSRGASTHYADSVKGRFTISRDNANNTVYLQLTSLKPEDTAVYYCNKRQVFVSTGVYEFDYWGQGTQVTVSS	low polyreactivity
QVQLVESGGGLVQAGGSLRLSCAASGSIFGTYAMGWYRQAPGKERELVAAITGSGGRTYYADSVKGRFTISRDNAKNTVYLQMNSLKPEDTAVYYCNKVVYVRSYPPRYDYWGQGTQVSVSS	high polyreactivity
QVQLVESGGGLVQAGGSLRLSCAASGSIFWSYAMGWYRQAPGKEREFVAAIRGRGGNTYADSVKGRFTISRDNAKNTVYLQMNSLKPEDTAVYYCAAPLLRDLRSPYSYNYWGQGTQVTVSS	low polyreactivity
QVQLVESGGGLVQAGGSLRLSCAASGRIFYRYAMGWYRQAPGKERELVAAISRTGSRTYYADSVKGRFTISRDNAKNTVYLQMNSLKPEDTAVYYCNKVSAPAEFRSRGYWGQGTQVTVSS	high polyreactivity
QVQLVESVGGLVQAGGSLRLSCAASGIFVDNAMGWYRQAPGTETELVAPITSSTDSTYYADSVKGRFTISRDNAKNTVALQMNSLKPEDTAVYYCAVARPGGFYFLVHYGYGYWGQGTQVTVSS	low polyreactivity
QVQLVESGGGLVQAGGSLRLSCAASGLISRRNAMGWYRQAPGKERELVAAISTGSSTNYADSVKGRFTISRDNAKNTVYLQMNSLKPEDTAVYYCAATQYWWSTLGIRDDYWGQGSQVTVSS	low polyreactivity
QVQLVESGGGLVQAGGSLRLTCAASGRTFYYYAMGWYRKAPGKERELVAAIDSDGSTTYADSVKGRFTISRDNAKNTVYLQINSLKPEDTAVYYCAAAFPTYRHYYWGQGTQVTVSS	low polyreactivity
QVQLVESGGGLVQAGGSLRLSCAPSGFIYHWNAMGWYRQAPGKERELLAAITWRGTNTYYADSVKGRFTISRDNAKNTVYLQMNRLKPEDTAVYYCAARYVTYYGTFDYWGLGTQVTVSS	low polyreactivity
